# Molecular target: low density lipoprotein receptor-related protein (LRP-1) on rat liver cells (rat) (UniProt G3V928)
# Assay: cell-based or functional assay
# Sequence of low density lipoprotein receptor-related protein (LRP-1) on rat liver cells (rat) (G3V928 20-4545): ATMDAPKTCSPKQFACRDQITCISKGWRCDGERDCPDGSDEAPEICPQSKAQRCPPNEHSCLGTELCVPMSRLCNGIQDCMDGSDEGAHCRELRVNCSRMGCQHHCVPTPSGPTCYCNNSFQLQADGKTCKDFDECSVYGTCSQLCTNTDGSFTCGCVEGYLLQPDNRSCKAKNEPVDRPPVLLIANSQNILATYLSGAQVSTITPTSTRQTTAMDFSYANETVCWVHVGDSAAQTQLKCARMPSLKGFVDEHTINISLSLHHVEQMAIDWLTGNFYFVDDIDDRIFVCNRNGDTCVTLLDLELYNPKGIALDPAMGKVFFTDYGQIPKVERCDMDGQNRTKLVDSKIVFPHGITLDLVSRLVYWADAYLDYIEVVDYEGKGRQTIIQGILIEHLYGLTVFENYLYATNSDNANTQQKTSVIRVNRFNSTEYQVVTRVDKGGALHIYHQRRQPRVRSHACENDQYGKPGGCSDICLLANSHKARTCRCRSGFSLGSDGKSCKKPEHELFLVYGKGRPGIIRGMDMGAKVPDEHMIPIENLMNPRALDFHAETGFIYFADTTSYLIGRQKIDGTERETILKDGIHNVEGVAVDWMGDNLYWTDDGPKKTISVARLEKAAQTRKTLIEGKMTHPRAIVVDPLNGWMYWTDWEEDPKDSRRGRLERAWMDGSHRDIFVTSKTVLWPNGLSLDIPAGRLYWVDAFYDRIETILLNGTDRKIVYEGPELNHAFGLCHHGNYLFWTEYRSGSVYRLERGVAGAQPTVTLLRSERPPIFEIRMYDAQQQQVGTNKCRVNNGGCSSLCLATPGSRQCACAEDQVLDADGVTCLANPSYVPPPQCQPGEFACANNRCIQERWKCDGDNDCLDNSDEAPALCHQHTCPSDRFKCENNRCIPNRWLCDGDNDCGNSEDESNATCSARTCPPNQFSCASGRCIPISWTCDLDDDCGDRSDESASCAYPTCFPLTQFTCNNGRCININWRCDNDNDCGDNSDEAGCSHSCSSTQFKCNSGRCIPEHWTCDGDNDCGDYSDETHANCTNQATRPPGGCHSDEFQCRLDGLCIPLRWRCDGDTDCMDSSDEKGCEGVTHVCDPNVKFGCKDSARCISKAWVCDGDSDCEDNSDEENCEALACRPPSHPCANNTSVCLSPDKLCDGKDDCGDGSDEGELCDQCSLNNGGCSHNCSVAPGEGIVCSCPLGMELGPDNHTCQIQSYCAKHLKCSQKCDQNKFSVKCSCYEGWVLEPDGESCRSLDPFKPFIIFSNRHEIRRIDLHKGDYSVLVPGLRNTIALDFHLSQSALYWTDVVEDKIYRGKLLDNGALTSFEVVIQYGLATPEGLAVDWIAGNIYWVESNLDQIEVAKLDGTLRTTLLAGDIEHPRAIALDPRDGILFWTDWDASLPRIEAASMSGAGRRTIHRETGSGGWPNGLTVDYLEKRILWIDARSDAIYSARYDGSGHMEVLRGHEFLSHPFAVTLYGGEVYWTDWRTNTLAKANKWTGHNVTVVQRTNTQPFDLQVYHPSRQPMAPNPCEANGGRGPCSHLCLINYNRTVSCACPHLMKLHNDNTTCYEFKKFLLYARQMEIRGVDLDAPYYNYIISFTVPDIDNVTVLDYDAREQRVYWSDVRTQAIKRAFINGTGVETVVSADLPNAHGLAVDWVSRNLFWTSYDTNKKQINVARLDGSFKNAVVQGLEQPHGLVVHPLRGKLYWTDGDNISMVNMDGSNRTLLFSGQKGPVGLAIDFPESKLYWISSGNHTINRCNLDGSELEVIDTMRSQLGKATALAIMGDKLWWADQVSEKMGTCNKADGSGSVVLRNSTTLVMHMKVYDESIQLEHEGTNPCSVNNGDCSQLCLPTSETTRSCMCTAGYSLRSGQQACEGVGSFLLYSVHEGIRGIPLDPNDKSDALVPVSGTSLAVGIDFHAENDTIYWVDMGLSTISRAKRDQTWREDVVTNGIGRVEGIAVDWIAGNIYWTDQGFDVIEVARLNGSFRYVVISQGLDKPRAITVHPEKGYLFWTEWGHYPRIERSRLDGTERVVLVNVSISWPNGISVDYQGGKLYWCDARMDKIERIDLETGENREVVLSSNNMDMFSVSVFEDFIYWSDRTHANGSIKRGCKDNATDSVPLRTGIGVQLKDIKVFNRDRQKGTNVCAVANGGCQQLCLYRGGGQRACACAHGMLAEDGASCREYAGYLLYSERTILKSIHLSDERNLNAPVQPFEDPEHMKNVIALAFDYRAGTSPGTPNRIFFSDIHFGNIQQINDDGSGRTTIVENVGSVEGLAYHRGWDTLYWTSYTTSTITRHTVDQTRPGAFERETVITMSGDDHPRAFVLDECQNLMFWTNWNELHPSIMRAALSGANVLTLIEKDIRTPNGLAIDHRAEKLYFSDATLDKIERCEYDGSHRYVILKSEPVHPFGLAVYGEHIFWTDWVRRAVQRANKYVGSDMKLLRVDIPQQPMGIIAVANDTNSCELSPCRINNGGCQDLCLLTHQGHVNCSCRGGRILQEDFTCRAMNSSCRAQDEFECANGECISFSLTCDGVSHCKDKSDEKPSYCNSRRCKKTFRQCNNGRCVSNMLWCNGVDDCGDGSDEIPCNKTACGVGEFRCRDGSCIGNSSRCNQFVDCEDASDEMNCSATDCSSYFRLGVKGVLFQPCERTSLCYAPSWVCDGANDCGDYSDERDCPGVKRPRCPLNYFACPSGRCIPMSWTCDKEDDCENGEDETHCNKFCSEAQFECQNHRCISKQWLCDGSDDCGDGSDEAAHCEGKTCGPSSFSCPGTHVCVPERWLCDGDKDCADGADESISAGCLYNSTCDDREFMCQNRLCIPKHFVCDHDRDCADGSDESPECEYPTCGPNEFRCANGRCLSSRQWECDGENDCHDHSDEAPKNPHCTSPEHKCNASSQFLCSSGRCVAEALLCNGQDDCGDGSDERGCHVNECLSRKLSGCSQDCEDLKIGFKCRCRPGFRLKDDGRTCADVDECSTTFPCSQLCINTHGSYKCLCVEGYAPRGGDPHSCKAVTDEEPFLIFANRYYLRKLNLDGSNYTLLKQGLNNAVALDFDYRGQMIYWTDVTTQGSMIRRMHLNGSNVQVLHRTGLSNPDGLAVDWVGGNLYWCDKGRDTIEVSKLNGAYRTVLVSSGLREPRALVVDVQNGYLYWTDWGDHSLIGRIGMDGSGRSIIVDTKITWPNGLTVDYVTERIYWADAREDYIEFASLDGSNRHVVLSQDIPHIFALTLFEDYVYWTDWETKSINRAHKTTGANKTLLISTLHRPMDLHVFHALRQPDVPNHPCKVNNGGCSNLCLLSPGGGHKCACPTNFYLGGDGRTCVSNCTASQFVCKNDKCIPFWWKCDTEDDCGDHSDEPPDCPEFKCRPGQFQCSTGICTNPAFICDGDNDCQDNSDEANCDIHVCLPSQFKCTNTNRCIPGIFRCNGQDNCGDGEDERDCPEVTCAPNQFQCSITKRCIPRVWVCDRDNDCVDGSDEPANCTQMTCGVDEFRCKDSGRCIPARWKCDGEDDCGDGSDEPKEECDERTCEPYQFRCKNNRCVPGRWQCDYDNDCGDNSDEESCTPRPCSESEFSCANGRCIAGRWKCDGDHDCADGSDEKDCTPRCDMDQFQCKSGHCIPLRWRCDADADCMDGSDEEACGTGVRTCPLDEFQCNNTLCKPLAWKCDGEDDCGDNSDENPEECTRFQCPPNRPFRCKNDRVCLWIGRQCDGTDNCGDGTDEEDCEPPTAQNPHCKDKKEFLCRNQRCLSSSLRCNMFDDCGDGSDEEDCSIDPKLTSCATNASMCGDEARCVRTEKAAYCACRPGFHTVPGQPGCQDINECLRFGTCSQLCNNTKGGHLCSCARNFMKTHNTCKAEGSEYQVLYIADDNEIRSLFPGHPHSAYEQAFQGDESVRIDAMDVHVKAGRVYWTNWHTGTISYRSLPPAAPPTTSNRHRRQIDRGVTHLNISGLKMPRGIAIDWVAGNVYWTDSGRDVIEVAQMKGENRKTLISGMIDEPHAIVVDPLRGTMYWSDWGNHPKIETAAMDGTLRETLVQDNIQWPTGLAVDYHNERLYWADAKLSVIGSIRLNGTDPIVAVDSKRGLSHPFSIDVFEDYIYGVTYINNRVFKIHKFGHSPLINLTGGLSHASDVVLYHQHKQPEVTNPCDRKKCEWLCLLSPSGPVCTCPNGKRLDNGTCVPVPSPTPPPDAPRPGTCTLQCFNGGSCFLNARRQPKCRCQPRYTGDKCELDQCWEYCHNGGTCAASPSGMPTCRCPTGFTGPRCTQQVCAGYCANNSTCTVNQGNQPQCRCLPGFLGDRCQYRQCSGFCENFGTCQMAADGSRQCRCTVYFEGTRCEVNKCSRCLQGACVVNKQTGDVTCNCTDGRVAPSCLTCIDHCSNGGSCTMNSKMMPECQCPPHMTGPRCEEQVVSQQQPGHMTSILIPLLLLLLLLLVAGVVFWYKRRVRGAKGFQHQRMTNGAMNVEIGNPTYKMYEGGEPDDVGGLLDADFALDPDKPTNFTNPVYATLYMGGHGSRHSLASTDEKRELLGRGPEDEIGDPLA
substance,measurement,value
P. falciparum CS protein CS27IVC-His6 (AA 27-123[NANPNVDP]3[NANP]21300-411) (from UniProt P05691 27-123) (ligand),elevation of the cAMP level in Kupffer cells,3 fold
